This data set can be described thus: soluble on expression in E. coli; label from the status in PepcDB or PDB records.
With “MSLREYRYSDAHLHYVDFFQESEGMPALIKAMDAAGVEQSMISGIPVAKKWHEDEPKRPRYYAGDDADAYWYSATDTYVAAALQQLPSDQRKRFHPFLSGFNPVDKNAVSHIERMLDLYPGLWQGIGEVFTRHDDLTALTSGDTPRANNEAMTRIYHLAAERDLPVLLHSNITSKRERNPLYLAEIEEPLRNHPHTRFIWAHAGSSMEIHRHQKQMDFLLPVLTRLLEDYPNLYVDLSWSVLQPYLLDEQGAPRKEWLALVEKYPERFMLGSDVVGRFGSLGEQMHGFKPFLDALPESVAHKVARENFLAVLPKARHEGHHHHHH”, the “soluble on expression in E. coli” value is “soluble”.

For the sequence “MYPYIKLIATLFRAKNSPQMNLDEKSVLNCRAGLTDIDVFVELNNARHLTYMEFGRWDFAQRTGLLSLMRKNKWAFAVGGASVRYRRRIAFWKKFTVTTQVICHDGRWFYFLQETHIKDKVCSSALIKAAFTSKQGLVPATEVLAAYGKTTPNFDVPDWVNAWIDAESQRPWPLEHHHHHH”, the “soluble on expression in E. coli” value is “soluble”.

For “MTGIREGEKELSLLGSKTEYRNDYAPEVLEAFTNKHQENDYWVRFNCPEFTSLCPITGQPDFATIYINYIPDVKMVESKSLKLYLFSFRNHGAFHEDCVNIIMKDLIALMQPRYIEVWGDFTPRGGISIVPFCNYGKPGSRYELLAEKRMETHH”, the “soluble on expression in E. coli” value is reported as “not soluble”.

“MSLGQHFLKDLKVAQDIADTVDTFPELPVLEVGPGMGVLTQFLVKKDRLVKVVEVDYESVAYLREAYPSLEDHIIEDDFLKMNLHRLFDGKPFVLTGNYPYNISSQIFFKMLENKDIIPCCTGMIQKEVAERIAAGPGSKTYGILSVLIQAWYKVEYLFTVSEHVFNPPPKVKSAVIRMTRNDTKELGCDEKLFKQVVKTTFNQRRKTLRNSIKPILGKDCPLTEDALFNKRPEQLSVEEFISLTNQVEEALKTATASEGHHHHHH”: the “soluble on expression in E. coli” value is reported as “soluble”.

With “GPGSMSDVDDLIEELFPKKEGGRAPPEGKGGAACEPPASQSNWDDTDEANSEAETTTRNRGTSVSLEAAASTTANVGDGRGEDFDDSDESVEETVMGGRHTVPFPPTPGNMSMACNSKCFVTNVGSGELRHPSVAQLLLTGEGKYDKCSSNEQLLLRKGAFHALKADAGNGCTDKTADEDGRKGGCPFILCRKCNYTVIRLQDAEWDDEEGKMDLYLTVRNFYPDWSRLASSLPVGQMRRGEQNTVLKTCPDSAAYCCQCSWLTVKCAQEVIDTRVTDHTKFVGKELTCCFATQLPLISGEKRRPPLWVCGGHVPKH”, the “soluble on expression in E. coli” value is listed as “soluble”.

Take “MFSEELIKENENIWRRFLPHKFLIEMAENTIKKENFEKWLVNDYYFVKNALRFMALLMAKAPDDLLPFFAESIYYISKELEMFEKKAQELGISLNGEIDWRAKSYVNYLLSVASLGSFLEGFTALYCEEKAYYEAWKWVRENLKERSPYQEFINHWSSQEFGEYVKRIEKILNSLAEKHGEFEKERAREVFKEVSKFELIFWDIAYGGEGNVLEHHHHHH”: the “soluble on expression in E. coli” value is “soluble”.

As to “MNNSNENDVILAWWDWGHFITYYARRSPIAQGGPSVGVALYLLGKLNENWAINLGVDYVIVSYYDFLKFGAILSTANLSKRYNIRGYGLVVLPLRASTGALIFENRGYRAIVRHDKSWNAVIIYNGQMIYPRKLYVEHKEGVQEIKPPESNSNTYLYVNLNYGLEHHHHHH”, the “soluble on expression in E. coli” value was “not soluble”.

Regarding “MAHHHHHHMLGKLGLRTEAYPFDFSRVTLDGLMHFIRNGFAEGFYPPGPLPYRPECVGPWVLFRGQHTAFAHFDLNDPHVQAHFQVKMRRFDAVLNSPERPVTFFRTVTARYPQQELALALDLEEAVARRNPSLDFRIVFMVHDQGLRANAVQLAPLSPRVTLWTLQYRGLPGDTLFDRTHTAYRTVMMHSVAESNWPAVNVGVATPPPATVAPAEARDFESGALRCDGAIRTDDVPLSDLTVDRFPWRSHDNLALIDGVASVGGTCAGIGSTKMLEDASAALQVEGRVRRKCRYCGDATYHAAGRPFRTERPFTDEEDQLVLIHLYQILTGGDKVAAVEKLAHEMRRGTYEVICRIQYLTNSSTKLMDSIDPASPSDS”, the “soluble on expression in E. coli” value is “not soluble”.

Consider “GAMGSMERASLIQKAKLAEQAERYEDMAAFMKGAVEKGEELSCEERNLLSVAYKNVVGGQRAAWRVLSSIEQKSNEEGSEEKGPEVREYREKVETELQGVCDTVLGLLDSHLIKEAGDAESRVFYLKMKGDYYRYLAEVATGDDKKRIIDSARSAYQEAMDISKKEMPPTNPIRLGLALNFSVFHYEIANSPEEAISLAKTTFDEAMADLHTLSEDSYKDSTLIMQLLRDNLTLWTADNAGEEGGEAPQEPQS”, for which the “soluble on expression in E. coli” value is “soluble”.

For the sequence “GPGSMWKCYPLRCPAATGVFGCFKRLQDGYSAWCAAVSNQETASAKTSSRGSGAENTENLQLPIHTNPNACPRSVLVVPAGDIKDALRRQKRYDVVADVVMLDLTRGVFGGSDRSGGASEARDRLLRFLRESVRGDHMEGCSDDGEWKTQSGEGTVGQIFNGGRARWVVRVNSPEFDAARGFLDMELVGVLGDLIEGVVLPSVTANTYELVQEFIHPSHKLWAAFNTPLSVLQASAVCAQGHYRYAIVDREELAYEMQYPSVNSEKRSGSLNFSEDVEATQLKHVRSLPALHSACQVMTAAKAHGMYLFDGGFSDVSDSIGFRHDMQRCRAFGFDGRVVLRPSQIAACHEAFVPTSEEVEWAKAVQRTHCMDQYNVNGDNATSVGGDATCRRQRAALILERHAAVQWYNRNPQDDGMDMQRKGAGGNVPQGSVV”, the “soluble on expression in E. coli” value was “not soluble”.

“MSLKITRIDIHRTDLPVRGGVYRLSGGREYHSYDATIVSIETDTGLTGWGESTPFGSTYIAAHAGGTRAALELLAPAILGMDPRQHDRIWDRMRDTLKGHRDARAALDIACWDIAAQAAGLPLCDMTGGRVAGPVPVISSIGGDTPEAMRAKVARHRAQGFKGHSIKIGASEAEGGPALDAERITACLADRQPGEWYLADANNGLTVEHALRMLSLLPPGLDIVLEAPCASWAETKSLRARCALPLLLDELIQTETDLIAAIRDDLCDGVGLKVSKQGGITPMLRQRAIAAAAGMVMSVQDTVGSQISFAAILHLAQSTPRHLLRCALDTRAMTTAELAEIDAPLRDGGASAPSDPGLGLRVNRDALGTPVKTFGDPIEGHHHHHH”: the “soluble on expression in E. coli” value was “soluble”.

Regarding “MGGSHHHHHHGMASLAPGSSRVELFKRKNSTVPFEESNGTIRERVVHSFRIPTIVNVDGVMVAIADARYETSFDNSFIETAVKYSVDDGATWNTQIAIKNSRASSVSRVMDATVIVKGNKLYILVGSFNKTRNSWTQHRDGSDWEPLLVVGEVTKSAANGKTTATISWGKPVSLKPLFPAEFDGILTKEFIGGVGAAIVASNGNLVYPVQIADMGGRVFTKIMYSEDDGNTWKFAEGRSKFGCSEPAVLEWEGKLIINNRVDGNRRLVYESSDMGKTWVEALGTLSHVWTNSPTSNQQDCQSSFVAVTIEGKRVMLFTHPLNLKGRWMRDRLHLWMTDNQRIFDVGQISIGDENSGYSSVLYKDDKLYSLHEINTNDVYSLVFVRLIGELQLMKSVVRTWKEEDNHLASICTPVVPATPPSKGGCGAAVPTAGLVGFLSHSANGSVWEDVYRCVDANVANAERVPNGLKFNGVGGGAVWPVARQGQTRRYQFANYRFTLVATVTIDELPKGTSPLLGAGLEGPGDAKLLGLSYDKNRQWRPLYGAAPASPTGSWELHKKYHVVLTMADRQGSVYVDGQPLAGSGNTVVRGATLPDISHFYIGGPRSKGAPTDSRVTVTNVVLYNRRLNSSEIRTLFLSQDMIGTDGGAGTAA”, the “soluble on expression in E. coli” value is on record as “soluble”.

On to “MGSDKIHHHHHHMRGEKNELLSWINNFVEVNNKAIDNSFEKFKSEPSNQYNLPFKNVSWYTLRKTLADNVEESKKARGCLYAVLDYNESELKELGLILNSNLHSIKKIANKIMQNAGIEFQFRFEAIMRLLLDKKNNLMLLNIPDLKRIKICLENFLSLRTTFRELVKQLLNDYNSNKESIKSENIKLGDYLNKAFSDIVLSMDKNPINLEKEIRNIIVI”, for which the “soluble on expression in E. coli” value is given as “not soluble”.

With “GMEEINKYIQNSSETGGEIYNLIEELFPICRSITGNGVRKTMDIIRKHIPLEIHEVKSGTKVFDWTVPKEWNIKDAYVRNSKGEKVIDFKENNLHVMSYSVPVHKTMTLDELKPYLHTIPGNKDRIPYLTSYYKENWGFSLTQNKFDELCDDDYEVVIDSSLEDGSLTYGEYYIRGELEEEILLTTYTCHPSMCNDNLSGVALITFIAKALSKLKTKYSYRFLFAPETIGSITWLSRNEDKLKNIKMGLVATCVGDAGIKNYKRTKFGDAEIDKIVEKVLMHCGSEYYVADFFPWGSDERQFSSPGINLSVGSLMRSCYGFDGYHTSADNLCYMNKDGLADSYKTYLEVIYTIENNRTYLNLNPKCEPQLGKRGIYRMIGGGSDYPFDEFAMFWVLNMSDGKNSLLDIAYKSGMEFRRIKYAADALYRVELLKLV”, the “soluble on expression in E. coli” value is reported as “soluble”.

These data come from the DeepSol protein solubility set.
